From the Human Domainome abundance scans (Beltran et al. 2025)
± gives the uncertainty stated by the source.

B1: Apoptosis-associated speck-like protein containing a CARD, residues 114 to 194; numbered along this chain, Q9ULZ3 (parent)
chain: FIDQHRAALIARVTNVEWLLDALYGKVLTDEQYQAVRAEPTNPSKMRKLFSFTPAWNWTCKDLLLQALRESQSYLVEDLER

Variants of: B1
Assay: abundance fitness (aPCA) (normalised: wild type 0, dead -1); higher = more abundant; growth selection in yeast, the domain comes from the species named
Details: Homo sapiens

**Q.** Which abundance fitness does the source give for FIDQHEAALIARVTNVEWLLDALYGKVLTDEQYQAVRAEPTNPSKMRKLFSFTPAWNWTCKDLLLQALRESQSYLVEDLER [R6E] here?
**A.** Its abundance fitness is -0.141 ± 0.084.

**Q.** With FIDQHQAALIARVTNVEWLLDALYGKVLTDEQYQAVRAEPTNPSKMRKLFSFTPAWNWTCKDLLLQALRESQSYLVEDLER [R6Q] as the variant, how does the abundance fitness read?
**A.** The abundance fitness was -0.285 ± 0.13.

**Q.** With FIDQHAAALIARVTNVEWLLDALYGKVLTDEQYQAVRAEPTNPSKMRKLFSFTPAWNWTCKDLLLQALRESQSYLVEDLER [R6A] as the variant, how does the abundance fitness read?
**A.** The abundance fitness was -0.074 ± 0.059.

**Q.** For FIDQHDAALIARVTNVEWLLDALYGKVLTDEQYQAVRAEPTNPSKMRKLFSFTPAWNWTCKDLLLQALRESQSYLVEDLER [R6D], which abundance fitness is on record?
**A.** The abundance fitness was -0.724 ± 0.19.

**Q.** For FIDQHHAALIARVTNVEWLLDALYGKVLTDEQYQAVRAEPTNPSKMRKLFSFTPAWNWTCKDLLLQALRESQSYLVEDLER [R6H], which abundance fitness is on record?
**A.** The abundance fitness was -0.635 ± 0.23.

**Q.** For FIDQHCAALIARVTNVEWLLDALYGKVLTDEQYQAVRAEPTNPSKMRKLFSFTPAWNWTCKDLLLQALRESQSYLVEDLER [R6C], which abundance fitness is on record?
**A.** Its abundance fitness is -0.752 ± 0.17.

**Q.** Which abundance fitness does the source give for FIDQHNAALIARVTNVEWLLDALYGKVLTDEQYQAVRAEPTNPSKMRKLFSFTPAWNWTCKDLLLQALRESQSYLVEDLER [R6N] here?
**A.** The abundance fitness was -0.397 ± 0.16.

**Q.** Which abundance fitness does the source give for FIDQHFAALIARVTNVEWLLDALYGKVLTDEQYQAVRAEPTNPSKMRKLFSFTPAWNWTCKDLLLQALRESQSYLVEDLER [R6F] here?
**A.** Its abundance fitness is -0.538 ± 0.15.

**Q.** For FIDQHIAALIARVTNVEWLLDALYGKVLTDEQYQAVRAEPTNPSKMRKLFSFTPAWNWTCKDLLLQALRESQSYLVEDLER [R6I], which abundance fitness is on record?
**A.** Its abundance fitness is -0.389 ± 0.14.

**Q.** For FIDQHTAALIARVTNVEWLLDALYGKVLTDEQYQAVRAEPTNPSKMRKLFSFTPAWNWTCKDLLLQALRESQSYLVEDLER [R6T], which abundance fitness is on record?
**A.** Its abundance fitness is -0.549 ± 0.13.

**Q.** With FIDQHGAALIARVTNVEWLLDALYGKVLTDEQYQAVRAEPTNPSKMRKLFSFTPAWNWTCKDLLLQALRESQSYLVEDLER [R6G] as the variant, how does the abundance fitness read?
**A.** The abundance fitness was -0.501 ± 0.057.

**Q.** Which abundance fitness does the source give for FIDQHPAALIARVTNVEWLLDALYGKVLTDEQYQAVRAEPTNPSKMRKLFSFTPAWNWTCKDLLLQALRESQSYLVEDLER [R6P] here?
**A.** The abundance fitness was -0.685 ± 0.13.

**Q.** With FIDQHKAALIARVTNVEWLLDALYGKVLTDEQYQAVRAEPTNPSKMRKLFSFTPAWNWTCKDLLLQALRESQSYLVEDLER [R6K] as the variant, how does the abundance fitness read?
**A.** Its abundance fitness is 0.014 ± 0.1.

**Q.** For FIDQHLAALIARVTNVEWLLDALYGKVLTDEQYQAVRAEPTNPSKMRKLFSFTPAWNWTCKDLLLQALRESQSYLVEDLER [R6L], which abundance fitness is on record?
**A.** Its abundance fitness is -0.362 ± 0.061.

**Q.** For FIDQHYAALIARVTNVEWLLDALYGKVLTDEQYQAVRAEPTNPSKMRKLFSFTPAWNWTCKDLLLQALRESQSYLVEDLER [R6Y], which abundance fitness is on record?
**A.** The abundance fitness was -0.327 ± 0.14.

**Q.** With FIDQHSAALIARVTNVEWLLDALYGKVLTDEQYQAVRAEPTNPSKMRKLFSFTPAWNWTCKDLLLQALRESQSYLVEDLER [R6S] as the variant, how does the abundance fitness read?
**A.** Its abundance fitness is -0.385 ± 0.048.

**Q.** For FIDQHVAALIARVTNVEWLLDALYGKVLTDEQYQAVRAEPTNPSKMRKLFSFTPAWNWTCKDLLLQALRESQSYLVEDLER [R6V], which abundance fitness is on record?
**A.** The abundance fitness was -0.416 ± 0.07.

**Q.** For FIDQHMAALIARVTNVEWLLDALYGKVLTDEQYQAVRAEPTNPSKMRKLFSFTPAWNWTCKDLLLQALRESQSYLVEDLER [R6M], which abundance fitness is on record?
**A.** Its abundance fitness is -0.107 ± 0.082.

**Q.** Which abundance fitness does the source give for FIQQHRAALIARVTNVEWLLDALYGKVLTDEQYQAVRAEPTNPSKMRKLFSFTPAWNWTCKDLLLQALRESQSYLVEDLER [D3Q] here?
**A.** Its abundance fitness is -0.929 ± 0.19.

**Q.** Which abundance fitness does the source give for FILQHRAALIARVTNVEWLLDALYGKVLTDEQYQAVRAEPTNPSKMRKLFSFTPAWNWTCKDLLLQALRESQSYLVEDLER [D3L] here?
**A.** The abundance fitness was -0.881 ± 0.14.

**Q.** Which abundance fitness does the source give for FIYQHRAALIARVTNVEWLLDALYGKVLTDEQYQAVRAEPTNPSKMRKLFSFTPAWNWTCKDLLLQALRESQSYLVEDLER [D3Y] here?
**A.** The abundance fitness was -0.794 ± 0.2.

**Q.** For FIHQHRAALIARVTNVEWLLDALYGKVLTDEQYQAVRAEPTNPSKMRKLFSFTPAWNWTCKDLLLQALRESQSYLVEDLER [D3H], which abundance fitness is on record?
**A.** Its abundance fitness is -0.616 ± 0.16.

**Q.** Which abundance fitness does the source give for FISQHRAALIARVTNVEWLLDALYGKVLTDEQYQAVRAEPTNPSKMRKLFSFTPAWNWTCKDLLLQALRESQSYLVEDLER [D3S] here?
**A.** The abundance fitness was -0.592 ± 0.11.

**Q.** Which abundance fitness does the source give for FITQHRAALIARVTNVEWLLDALYGKVLTDEQYQAVRAEPTNPSKMRKLFSFTPAWNWTCKDLLLQALRESQSYLVEDLER [D3T] here?
**A.** Its abundance fitness is -0.907 ± 0.25.

**Q.** With FIIQHRAALIARVTNVEWLLDALYGKVLTDEQYQAVRAEPTNPSKMRKLFSFTPAWNWTCKDLLLQALRESQSYLVEDLER [D3I] as the variant, how does the abundance fitness read?
**A.** Its abundance fitness is -0.796 ± 0.27.

**Q.** With FIWQHRAALIARVTNVEWLLDALYGKVLTDEQYQAVRAEPTNPSKMRKLFSFTPAWNWTCKDLLLQALRESQSYLVEDLER [D3W] as the variant, how does the abundance fitness read?
**A.** Its abundance fitness is -0.582 ± 0.13.

**Q.** Which abundance fitness does the source give for FIGQHRAALIARVTNVEWLLDALYGKVLTDEQYQAVRAEPTNPSKMRKLFSFTPAWNWTCKDLLLQALRESQSYLVEDLER [D3G] here?
**A.** The abundance fitness was -0.805 ± 0.088.

**Q.** Which abundance fitness does the source give for FIKQHRAALIARVTNVEWLLDALYGKVLTDEQYQAVRAEPTNPSKMRKLFSFTPAWNWTCKDLLLQALRESQSYLVEDLER [D3K] here?
**A.** Its abundance fitness is -0.825 ± 0.44.

**Q.** For FINQHRAALIARVTNVEWLLDALYGKVLTDEQYQAVRAEPTNPSKMRKLFSFTPAWNWTCKDLLLQALRESQSYLVEDLER [D3N], which abundance fitness is on record?
**A.** Its abundance fitness is -0.599 ± 0.12.

**Q.** Which abundance fitness does the source give for FIPQHRAALIARVTNVEWLLDALYGKVLTDEQYQAVRAEPTNPSKMRKLFSFTPAWNWTCKDLLLQALRESQSYLVEDLER [D3P] here?
**A.** Its abundance fitness is -0.951 ± 0.21.

**Q.** Which abundance fitness does the source give for FIRQHRAALIARVTNVEWLLDALYGKVLTDEQYQAVRAEPTNPSKMRKLFSFTPAWNWTCKDLLLQALRESQSYLVEDLER [D3R] here?
**A.** The abundance fitness was -0.544 ± 0.095.

**Q.** For FIDQHREALIARVTNVEWLLDALYGKVLTDEQYQAVRAEPTNPSKMRKLFSFTPAWNWTCKDLLLQALRESQSYLVEDLER [A7E], which abundance fitness is on record?
**A.** The abundance fitness was 0.295 ± 0.069.

**Q.** For FIDQHRCALIARVTNVEWLLDALYGKVLTDEQYQAVRAEPTNPSKMRKLFSFTPAWNWTCKDLLLQALRESQSYLVEDLER [A7C], which abundance fitness is on record?
**A.** Its abundance fitness is -0.2 ± 0.05.

**Q.** For FIDQHRDALIARVTNVEWLLDALYGKVLTDEQYQAVRAEPTNPSKMRKLFSFTPAWNWTCKDLLLQALRESQSYLVEDLER [A7D], which abundance fitness is on record?
**A.** Its abundance fitness is 0.065 ± 0.1.
